The target of the test is insulin receptor ectodomain (UniProt P06213). Nature of the test: SPR; insulin receptor immobilised; svPDE flowed at 0.25, 0.5, 1.0, 2.0, 4.0 and 8.0 uM; KD by steady-state affinity model; apparent. On the technique in general: In SPR one partner is held on a chip, and binding of the other changes the refractive index at the surface.

Drawing on article PMC10121219, this text covers Kd for one substance.

For “snake venom phosphodiesterase (svPDE) from Naja atra (from UniProt A0A2D0TC04 1-830)”, the Kd is 1800 nM.
